Measurements taken from PMC9352680, “A comprehensive thermodynamic model for RNA binding by the Saccharomyces cerevisiae Pumilio protein PUF4”.
Positions count from the first letter of the chain named. Numbers in names are those of the source.

T1: PUF4 RNA-binding domain (Saccharomyces cerevisiae, UniProt P25339 537-888)
T1 sequence: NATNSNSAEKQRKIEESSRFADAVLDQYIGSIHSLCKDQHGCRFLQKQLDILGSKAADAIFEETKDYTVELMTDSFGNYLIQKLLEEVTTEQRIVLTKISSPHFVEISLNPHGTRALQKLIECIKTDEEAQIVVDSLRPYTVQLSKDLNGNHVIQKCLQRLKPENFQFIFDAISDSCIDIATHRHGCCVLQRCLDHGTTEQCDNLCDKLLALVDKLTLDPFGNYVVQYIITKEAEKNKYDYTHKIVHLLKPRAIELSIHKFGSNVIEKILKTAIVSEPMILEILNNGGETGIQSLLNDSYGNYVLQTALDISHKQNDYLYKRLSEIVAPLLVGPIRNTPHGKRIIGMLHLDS

B1: Id_ii_S2_P3E.3_K3.2_C3.2_[C-2G]_H3.2_A3.1_F3.1_T3.2_[A10C] (ssRNA)
RNA: UUUGAUUAAUAUGAUAUCGUUCUUUCUGUUAUAUAUAUCUUCUUUCUCGAUAUCAUAUUAAUCUUU
B2: Id_ii_S2_P3E.3_K3.2_C3.2_[C-2T]_H3.2_A3.1_F3.1_T3.2_[T9G]_[A10C] (ssRNA)
RNA: B1 RNA with G28U, U38G
B3: Id_ii_S2_P3E.3_K3.2_C3.2_[C-2A]_[T-1G]_H3.2_A3.1_F3.1_T3.2_[T9A]_[A10C] (ssRNA)
RNA: B1 RNA with G28A, U29G, U38A
B4: Id_ii_S2_P3E.3_K3.2_C3.2_[C-2T]_[T-1C]_H3.2_A3.1_F3.1_T3.2_[T9C] (ssRNA)
RNA: B1 RNA with G28U, U29C, U38C, C39A
B5: Id_ii_S2_P3E.3_K3.2_C3.2_[C-2T]_[T-1G]_H3.2_A3.1_F3.1_T3.2_[T9G]_[A10C] (ssRNA)
RNA: B1 RNA with G28U, U29G, U38G
B6: Id_ii_S2_P3E.3_K3.2_C3.2_[C-2T]_H3.2_A3.1_F3.1_T3.2_[A10C] (ssRNA)
RNA: B1 RNA with G28U
B7: Id_ii_S2_P3E.3_K3.2_C3.2_[C-2T]_[T-1C]_H3.2_A3.1_F3.1_T3.2_[T9G]_[A10T] (ssRNA)
RNA: B1 RNA with G28U, U29C, U38G, C39U
B8: Id_ii_S2_P3E.3_K3.2_C3.2_[C-2T]_H3.2_A3.1_F3.1_T3.2_[A10T] (ssRNA)
RNA: B1 RNA with G28U, C39U
B9: Id_ii_S2_P3E.3_K3.2_C3.2_[C-2T]_[T-1A]_H3.2_A3.1_F3.1_T3.2_[A10T] (ssRNA)
RNA: B1 RNA with G28U, U29A, C39U
B10: Id_ii_S2_P3E.3_K3.2_C3.2_[C-2T]_[T-1C]_H3.2_A3.1_F3.1_T3.2_[T9G]_[A10C] (ssRNA)
RNA: B1 RNA with G28U, U29C, U38G
B11: Id_ii_S2_P3E.3_K3.2_C3.2_[C-2T]_[T-1G]_H3.2_A3.1_F3.1_T3.2_[T9A] (ssRNA)
RNA: B1 RNA with G28U, U29G, U38A, C39A
B12: Id_ii_S2_P3E.3_K3.2_C3.2_[C-2G]_H3.2_A3.1_F3.1_T3.2_[A10T] (ssRNA)
RNA: B1 RNA with C39U
B13: Id_ii_S2_P3E.3_K3.2_C3.2_[C-2A]_[T-1A]_H3.2_A3.1_F3.1_T3.2_[T9A]_[A10G] (ssRNA)
RNA: B1 RNA with G28A, U29A, U38A, C39G
B14: Id_ii_S2_P3E.3_K3.2_C3.2_[C-2A]_[T-1C]_H3.2_A3.1_F3.1_T3.2_[T9G]_[A10C] (ssRNA)
RNA: B1 RNA with G28A, U29C, U38G
B15: Id_ii_S2_P3E.3_K3.2_C3.2_[C-2A]_[T-1C]_H3.2_A3.1_F3.1_T3.2_[T9C]_[A10G] (ssRNA)
RNA: B1 RNA with G28A, U29C, U38C, C39G
B16: Id_ii_S2_P3E.3_K3.2_C3.2_[C-2T]_[T-1A]_H3.2_A3.1_F3.1_T3.2_[T9A] (ssRNA)
RNA: B1 RNA with G28U, U29A, U38A, C39A
B17: Id_ii_S2_P3E.3_K3.2_C3.2_[C-2T]_H3.2_A3.1_F3.1_T3.2_[T9C]_[A10C] (ssRNA)
RNA: B1 RNA with G28U, U38C
B18: Id_ii_S2_P3E.3_K3.2_C3.2_[C-2A]_[T-1G]_H3.2_A3.1_F3.1_T3.2_[T9A] (ssRNA)
RNA: B1 RNA with G28A, U29G, U38A, C39A
B19: Id_ii_S2_P3E.3_K3.2_C3.2_[C-2A]_[T-1C]_H3.2_A3.1_F3.1_T3.2_[A10C] (ssRNA)
RNA: B1 RNA with G28A, U29C
B20: Id_ii_S2_P3E.3_K3.2_C3.2_[C-2T]_H3.2_A3.1_F3.1_T3.2_[T9G]_[A10T] (ssRNA)
RNA: B1 RNA with G28U, U38G, C39U
B21: Id_ii_S2_P3E.3_K3.2_C3.2_[C-2T]_H3.2_A3.1_F3.1_T3.2_[T9A]_[A10T] (ssRNA)
RNA: B1 RNA with G28U, U38A, C39U
B22: Id_ii_S2_P3E.3_K3.2_C3.2_[C-2T]_H3.2_A3.1_F3.1_T3.2_[T9A] (ssRNA)
RNA: B1 RNA with G28U, U38A, C39A
B23: Id_ii_S2_P3E.3_K3.2_C3.2_[C-2T]_[T-1A]_H3.2_A3.1_F3.1_T3.2_[A10G] (ssRNA)
RNA: B1 RNA with G28U, U29A, C39G
B24: Id_ii_S2_P3E.3_K3.2_C3.2_[C-2T]_[T-1G]_H3.2_A3.1_F3.1_T3.2_[A10C] (ssRNA)
RNA: B1 RNA with G28U, U29G
B25: Id_ii_S2_P3E.3_K3.2_C3.2_[C-2A]_[T-1C]_H3.2_A3.1_F3.1_T3.2_[T9C]_[A10T] (ssRNA)
RNA: B1 RNA with G28A, U29C, U38C, C39U
B26: Id_ii_S2_P3E.3_K3.2_C3.2_[C-2T]_[T-1A]_H3.2_A3.1_F3.1_T3.2_[T9C]_[A10T] (ssRNA)
RNA: B1 RNA with G28U, U29A, U38C, C39U
B27: Id_ii_S2_P3E.3_K3.2_C3.2_[C-2A]_[T-1A]_H3.2_A3.1_F3.1_T3.2_[T9G]_[A10C] (ssRNA)
RNA: B1 RNA with G28A, U29A, U38G
B28: Id_ii_S2_P3E.3_K3.2_C3.2_[C-2T]_[T-1A]_H3.2_A3.1_F3.1_T3.2_[A10C] (ssRNA)
RNA: B1 RNA with G28U, U29A
B29: Id_ii_S2_P3E.3_K3.2_C3.2_[C-2A]_[T-1G]_H3.2_A3.1_F3.1_T3.2_[T9A]_[A10T] (ssRNA)
RNA: B1 RNA with G28A, U29G, U38A, C39U
B30: Id_ii_S2_P3E.3_K3.2_C3.2_[C-2T]_[T-1A]_H3.2_A3.1_F3.1_T3.2_[T9A]_[A10T] (ssRNA)
RNA: B1 RNA with G28U, U29A, U38A, C39U
B31: Id_ii_S2_P3E.3_K3.2_C3.2_[C-2A]_[T-1G]_H3.2_A3.1_F3.1_T3.2_[T9C]_[A10C] (ssRNA)
RNA: B1 RNA with G28A, U29G, U38C
B32: Id_ii_S2_P3E.3_K3.2_C3.2_[C-2A]_[T-1A]_H3.2_A3.1_F3.1_T3.2_[A10T] (ssRNA)
RNA: B1 RNA with G28A, U29A, C39U
B33: Id_ii_S2_P3E.3_K3.2_C3.2_[C-2T]_[T-1C]_H3.2_A3.1_F3.1_T3.2_[T9C]_[A10C] (ssRNA)
RNA: B1 RNA with G28U, U29C, U38C
B34: Id_ii_S2_P3E.3_K3.2_C3.2_[C-2A]_[T-1G]_H3.2_A3.1_F3.1_T3.2_[A10T] (ssRNA)
RNA: B1 RNA with G28A, U29G, C39U
B35: Id_ii_S2_P3E.3_K3.2_C3.2_[C-2T]_[T-1A]_H3.2_A3.1_F3.1_T3.2_[T9A]_[A10C] (ssRNA)
RNA: B1 RNA with G28U, U29A, U38A
B36: Id_ii_S2_P3E.3_K3.2_C3.2_[C-2T]_H3.2_A3.1_F3.1_T3.2_[T9A]_[A10C] (ssRNA)
RNA: B1 RNA with G28U, U38A
B37: Id_ii_S2_P3E.3_K3.2_C3.2_[C-2T]_[T-1G]_H3.2_A3.1_F3.1_T3.2_[A10T] (ssRNA)
RNA: B1 RNA with G28U, U29G, C39U
B38: Id_ii_S2_P3E.3_K3.2_C3.2_[C-2T]_[T-1C]_H3.2_A3.1_F3.1_T3.2_[T9C]_[A10T] (ssRNA)
RNA: B1 RNA with G28U, U29C, U38C, C39U
B39: Id_ii_S2_P3E.3_K3.2_C3.2_[C-2A]_[T-1C]_H3.2_A3.1_F3.1_T3.2_[T9A] (ssRNA)
RNA: B1 RNA with G28A, U29C, U38A, C39A
B40: Id_ii_S2_P3E.3_K3.2_C3.2_[C-2T]_[T-1C]_H3.2_A3.1_F3.1_T3.2_[T9C]_[A10G] (ssRNA)
RNA: B1 RNA with G28U, U29C, U38C, C39G
B41: Id_ii_S2_P3E.3_K3.2_C3.2_[C-2A]_[T-1C]_H3.2_A3.1_F3.1_T3.2_[T9C]_[A10C] (ssRNA)
RNA: B1 RNA with G28A, U29C, U38C
B42: Id_ii_S2_P3E.3_K3.2_C3.2_[C-2T]_[T-1C]_H3.2_A3.1_F3.1_T3.2_[A10T] (ssRNA)
RNA: B1 RNA with G28U, U29C, C39U
B43: Id_ii_S2_P3E.3_K3.2_C3.2_[C-2T]_[T-1A]_H3.2_A3.1_F3.1_T3.2_[T9C]_[A10C] (ssRNA)
RNA: B1 RNA with G28U, U29A, U38C
B44: Id_ii_S2_P3E.3_K3.2_C3.2_[C-2T]_[T-1G]_H3.2_A3.1_F3.1_T3.2_[T9A]_[A10T] (ssRNA)
RNA: B1 RNA with G28U, U29G, U38A, C39U
B45: Id_ii_S2_P3E.3_K3.2_C3.2_[C-2T]_[T-1C]_H3.2_A3.1_F3.1_T3.2_[T9A]_[A10T] (ssRNA)
RNA: B1 RNA with G28U, U29C, U38A, C39U
B46: Id_ii_S2_P3E.3_K3.2_C3.2_[C-2A]_H3.2_A3.1_F3.1_T3.2_[T9C]_[A10G] (ssRNA)
RNA: B1 RNA with G28A, U38C, C39G
B47: Id_ii_S2_P3E.3_K3.2_C3.2_[C-2T]_[T-1G]_H3.2_A3.1_F3.1_T3.2_[A10G] (ssRNA)
RNA: B1 RNA with G28U, U29G, C39G
B48: Id_ii_S2_P3E.3_K3.2_C3.2_[C-2T]_[T-1G]_H3.2_A3.1_F3.1_T3.2_[T9G]_[A10T] (ssRNA)
RNA: B1 RNA with G28U, U29G, U38G, C39U

biological target: T1, PUF4 RNA-binding domain; assay: Mg; RNA-MaP; 20 mM Na-HEPES pH 7.4, 30 mM KOAc, 0.75 mM MgCl2, 0.1% Tween-20, 5% glycerol, 0.1 mg/mL BSA, 2 mM DTT; 25 C; 0.0125-409.6 nM protein; conditions: tags: N-His6-TEV cleaved; C-SNAP kept, Cy3B-labelled; label: tethered on chip by stalled RNA polymerase

Row | Binder | Kd [nM]
1 | UCUCUUUGUGUUAAUAUCUCUU (ssRNA) [Ib_S1_P5E.1_K5.1_C5.1_H5.1_[A4G]_A5.1_F5.1_[T8A]_T5.1] | 134
2 | B1 | 15.1
3 | B2 | 277
4 | B3 | 1960
5 | B4 | 175
6 | B5 | 2.63
7 | B6 | 130
8 | B7 | 1030
9 | B8 | 78.5
10 | B9 | 83.4
11 | B10 | 393
12 | B11 | 2.25
13 | B12 | 9.18
14 | B13 | 1010
15 | B14 | 1590
16 | B15 | > 2300
17 | B16 | 498
18 | B17 | 191
19 | B18 | 809
20 | B19 | 183
21 | B20 | 253
22 | B21 | 439
23 | B22 | 925
24 | B23 | 554
25 | B24 | 1.72
26 | B25 | 103
27 | B26 | 45.6

Row | Binder | Kd [nM]
28 | B27 | 701
29 | B28 | 93.1
30 | B29 | 199
31 | B30 | 247
32 | B31 | 1900
33 | B32 | 720
34 | B33 | 228
35 | B34 | 407
36 | B35 | 203
37 | B36 | 262
38 | B37 | 1.25
39 | B38 | 88
40 | B39 | 290
41 | B40 | 536
42 | B41 | 245
43 | B42 | 68.1
44 | B43 | 63.8
45 | B44 | 1.67
46 | B45 | 147
47 | B46 | 713
48 | B47 | 1.52
49 | B48 | 3.83
50 | UCUCUUUGUAUUAUUGUCUCUU (ssRNA) [Ia_S1_P5E.1_K5.1_C5.1_H5.1_A5.1_F5.1_[A10G]_T5.1] | 14.8
51 | UCUCUUCGUAUUAUAAUCUCUU (ssRNA) [Ib_S1_P5E.1_K5.1_C5.1_H5.1_[T1C]_A5.1_F5.1_[T9A]_T5.1] | 691
52 | UCUCUUUGUUUUACUAUCUCUU (ssRNA) [Ib_S1_P5E.1_K5.1_C5.1_H5.1_[A4T]_A5.1_F5.1_[T8C]_T5.1] | 59.6
53 | UCUCUUUGUCUUACUAUCUCUU (ssRNA) [Ib_S1_P5E.1_K5.1_C5.1_H5.1_[A4C]_A5.1_F5.1_[T8C]_T5.1] | 86.7
54 | UCUCUUUGUUUUAAUAUCUCUU (ssRNA) [Ib_S1_P5E.1_K5.1_C5.1_H5.1_[A4T]_A5.1_F5.1_[T8A]_T5.1] | 73.4
